Reference: US20230027238A1 (SPECTRUM PHARMACEUTICALS, published 2023)

What was measured:
[1] = target: GLP-1R on CHO cells (CHO/GLP-1R); assay: cell-based or functional assay
[2] = target: T1, Chinese hamster ovary (CHO) cell-derived soluble recombinant human G-CSF receptor (human, UniProt Q99062 25-627); assay: SPR (BIAcore 3000), receptor amine-coupled to the chip, analyte 6.25-100 nmol/L, 25 °C, 1:1 Langmuir fit
T1 construct: extracellular domain; Immobilised by amine coupling on the sensor chip; also called soluble human G-CSF receptor; R&D Systems 381-050/CF
T1 sequence (looked up): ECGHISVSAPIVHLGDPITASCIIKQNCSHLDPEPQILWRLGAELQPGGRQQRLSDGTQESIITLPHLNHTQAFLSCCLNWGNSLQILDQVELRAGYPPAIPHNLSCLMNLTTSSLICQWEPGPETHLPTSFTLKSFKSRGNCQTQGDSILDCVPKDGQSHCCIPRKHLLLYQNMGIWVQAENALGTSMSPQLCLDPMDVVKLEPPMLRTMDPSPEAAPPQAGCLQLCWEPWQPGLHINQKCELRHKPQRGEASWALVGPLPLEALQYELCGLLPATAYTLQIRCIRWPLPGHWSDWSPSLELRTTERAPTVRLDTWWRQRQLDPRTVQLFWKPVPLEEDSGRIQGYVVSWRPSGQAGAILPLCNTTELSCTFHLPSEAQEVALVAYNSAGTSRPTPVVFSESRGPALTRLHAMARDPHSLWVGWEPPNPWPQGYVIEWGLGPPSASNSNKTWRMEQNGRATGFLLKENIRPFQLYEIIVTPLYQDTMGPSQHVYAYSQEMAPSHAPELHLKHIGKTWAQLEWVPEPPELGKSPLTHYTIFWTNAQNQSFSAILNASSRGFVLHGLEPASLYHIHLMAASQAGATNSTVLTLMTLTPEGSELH
Excerpt: Surface plasmon resonance technology and the BIAcore 3000 biosensor (GE healthcare) were employed to measure in vitro binding affinity to the G-CSF receptor. Amine-coupling chemistry was used to immobilize the G-CSF receptor on CMS biosensor chip. […] The CMS sensor chip surface was activated by injecting a 1:1 mixture of 0.1 mol/L N-hydroxysuccinimide (GE healthcare) and 0.1 mol/L 3-(N,N-dimethylamino)propyl-N-ethylcarbodiamide (GE Healthcare). […] The chip surface was then blocked with ethanolamine/HCl (GE Healthcare), pH 8.5, and washed with a regeneration solution (50 mmol/L NaCl; 5 mmol/L NaOH). […] Binding affinity was calculated using the 1:1 Langmuir fitting model for each test material.

[3] = target: T2, Fc fragment of eflapegrastim (human, UniProt P01861 107-325 = IgG part, aglycosylated (made in recombinant E. coli cells)); assay: ELISA with GST-FcγRIIB, detection with anti-GST antibody
T2 construct: tested alone, without PEG and G-CSF; also called aglycosylated IgG4-Fc fragment; immunoglobulin Fc fragment
T2 sequence (P01861 other isoform, or with tags, fused parts or gaps limits assumed): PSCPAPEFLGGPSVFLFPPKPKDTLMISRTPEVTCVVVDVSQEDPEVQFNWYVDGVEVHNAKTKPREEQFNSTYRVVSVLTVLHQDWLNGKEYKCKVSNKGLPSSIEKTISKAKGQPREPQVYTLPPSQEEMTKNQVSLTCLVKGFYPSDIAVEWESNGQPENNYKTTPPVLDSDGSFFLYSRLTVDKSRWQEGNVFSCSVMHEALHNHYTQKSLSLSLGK
Method: For C1q, FcγRIIB, FcγRIIIA, and FcRn binding assays, serial dilutions of the test materials were added to 96-well microplates coated with C1q, or GST fusion proteins of FcγRIIB or FcγRIIIA, or FcRn αβ2. After incubation and washing, HRP-conjugated anti-C1q antibody was added for C1q binding assay, and rabbit-anti-GST antibody and HRP-conjugated anti-rabbit IgG antibody were sequentially added for FcγRIIB, FcγRIIIA, and FcRn binding assays. The absorbance was measured at 450 nm as described above for FcγRI binding assay.

## CA Exendin (lysine)-PEG-(lysine) Fc (Fc fusion)
[1]
  % vs. Experimental group, CHO/GLP-1R bioassay: 16.1%
  EC50 (ng/ml), in vitro activity-CHO/GLP-1R bioassay: 59000 ng/mL

B1: pegfilgrastim (ligand, human, UniProt P09919-2 31-204, looked up)
chain: TPLGPASSLPQSFLLKCLEQVRKIQGDGAALQEKLCATYKLCHPEELVLLGHSLGIPWAPLSSCPSQALQLAGCLSQLHSGLFLYQGLLQALEGISPELGPTLDTLQLDVADFATTIWQQMEELGMAPALQPTQGAMPAFASAFQRRAGGVLVASHLQSFLEVSYRVLRHLAQP
modifications: N-terminal methionine residue pegylated with a 20 kDa polyethylene glycol
notes: Commercial product; also called Neulasta
[2]
  Kd: 2.9 nM

B2: GST fusion protein of FcγRIIB (receptor, UniProt P31994 43-217, looked up)
chain: TPAAPPKAVLKLEPQWINVLQEDSVTLTCRGTHSPESDSIQWFHNGNLIPTHTQPSYRFKANNNDSGEYTCQTGQTSLSDPVHLTVLSEWLVLQTPHLEFQEGETIVLRCHSWKDKPLVKVTFFQNGKSKKFSRSDPNFSIPQANHSHSGDYHCTGNIGYTLYSSKPVTITVQAP
notes: Order of receptor and GST unknown; not shown: GST
[3]
  binding result: no binding
